Assays:
[1] = target: cynomolgus ICOS (Macaca fascicularis (cynomolgus)); assay: Octet (BLI), global 1:1 binding model
[2] = target: cynomolgus PD-1 (Macaca fascicularis (cynomolgus)); assay: Octet (BLI), global 1:1 binding model
huICOS = huICOS (UniProt Q9Y6W8); assay: Octet (BLI), global 1:1 binding model
human PD-1 (human) = human PD-1 (human) (UniProt Q15116); assay: Octet (BLI), global 1:1 binding model
[3] = target: human PD-1 expressed on cells (human) (UniProt Q15116); assay: flow cytometry; blocking of 1 µg/mL PD-L1-mFc-Alexa647 binding to HEK 293T cells expressing PD-1 and ICOS
Chain of human PD-1 expressed on cells (human) (Q15116 25-288 limits assumed): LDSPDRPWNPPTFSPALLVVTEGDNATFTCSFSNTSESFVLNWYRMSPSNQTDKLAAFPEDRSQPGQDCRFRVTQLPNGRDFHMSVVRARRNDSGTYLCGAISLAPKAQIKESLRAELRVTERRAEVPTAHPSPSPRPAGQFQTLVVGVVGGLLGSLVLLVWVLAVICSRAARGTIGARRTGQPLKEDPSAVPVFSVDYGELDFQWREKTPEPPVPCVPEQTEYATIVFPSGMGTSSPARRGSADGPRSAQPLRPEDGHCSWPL

[4] = target: human ICOS expressed on cells (human) (UniProt Q9Y6W8); assay: flow cytometry; blocking of 0.5 µg/mL ICOSL-mFc-Alex647 binding to HEK 293T cells expressing PD-1 and ICOS
Chain of human ICOS expressed on cells (human) (Q9Y6W8 21-199 limits assumed): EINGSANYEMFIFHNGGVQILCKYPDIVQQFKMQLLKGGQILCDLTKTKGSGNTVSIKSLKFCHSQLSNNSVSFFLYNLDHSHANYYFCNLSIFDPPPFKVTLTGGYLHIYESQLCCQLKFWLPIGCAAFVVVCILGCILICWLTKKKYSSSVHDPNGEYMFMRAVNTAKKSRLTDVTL

[5] = target: human PD-1 expressed on cells (human) (UniProt Q15116); assay: flow cytometry; blocking of 0.1 µg/mL soluble PD-L2 (mFc-Alexa647) binding to HEK 293T cells expressing PD-1 and ICOS

Chain of human PD-1 (human) (Q15116 25-170 limits assumed): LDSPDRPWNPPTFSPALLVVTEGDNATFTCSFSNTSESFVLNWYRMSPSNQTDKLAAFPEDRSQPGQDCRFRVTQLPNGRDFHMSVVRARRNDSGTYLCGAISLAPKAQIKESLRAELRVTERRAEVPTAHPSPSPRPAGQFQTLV
Chain of cynomolgus PD-1 (Macaca fascicularis (cynomolgus)) (Q15116 other isoform, or with tags, fused parts or gaps limits assumed): as the sequence (Q15116 25-170 limits assumed) above, with D2E, P10A, V19L, T35A, Q75R, T144A counted along it
Chain of cynomolgus ICOS (Macaca fascicularis (cynomolgus)) (Q9Y6W8 21-140 H101R limits assumed): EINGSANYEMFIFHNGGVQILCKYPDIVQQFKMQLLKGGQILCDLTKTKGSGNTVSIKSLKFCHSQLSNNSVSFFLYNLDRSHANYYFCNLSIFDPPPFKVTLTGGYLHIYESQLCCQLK
Chain of huICOS (Q9Y6W8 21-140 limits assumed): as the sequence (Q9Y6W8 21-140 H101R limits assumed) above, with R81H counted along it

## XmAb23104 (bispecific antibody)
[1]
  Kd: 2.6 nM
[2]
  Kd: 5.8 nM
huICOS
  Kd: 2.9 nM
Human PD-1 (human)
  Kd: 2.8 nM
[3]
  EC90: 7.1 µg/mL
[4]
  EC10: 0.02 µg/mL
  EC90: 0.6 µg/mL
[5]
  EC10: 0.003 µg/mL
  EC90: 5.3 µg/mL

From US20210253706A1
